Results on 49 substances are retold here after patent US20140134132A1.

organic anion transporting polypeptide 1B1, sequence (Q9Y6L6 whole entry): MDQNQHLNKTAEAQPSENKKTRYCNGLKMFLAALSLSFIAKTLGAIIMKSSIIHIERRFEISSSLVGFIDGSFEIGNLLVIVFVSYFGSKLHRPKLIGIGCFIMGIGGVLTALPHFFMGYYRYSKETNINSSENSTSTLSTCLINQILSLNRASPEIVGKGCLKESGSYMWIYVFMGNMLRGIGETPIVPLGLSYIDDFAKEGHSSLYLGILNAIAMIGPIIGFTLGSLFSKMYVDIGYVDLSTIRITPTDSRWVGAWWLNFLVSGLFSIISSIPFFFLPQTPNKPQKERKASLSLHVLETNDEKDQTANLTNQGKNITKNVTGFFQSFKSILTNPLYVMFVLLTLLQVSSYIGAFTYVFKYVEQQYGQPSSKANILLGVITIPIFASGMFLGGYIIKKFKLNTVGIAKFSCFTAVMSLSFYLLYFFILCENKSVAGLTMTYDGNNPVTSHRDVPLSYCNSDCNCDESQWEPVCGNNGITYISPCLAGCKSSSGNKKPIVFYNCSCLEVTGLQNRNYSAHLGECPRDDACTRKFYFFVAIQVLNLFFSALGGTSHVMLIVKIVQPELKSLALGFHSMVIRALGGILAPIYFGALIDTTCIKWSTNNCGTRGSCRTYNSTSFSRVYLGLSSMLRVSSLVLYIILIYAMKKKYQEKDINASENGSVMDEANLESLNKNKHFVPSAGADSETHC

The experiment concerns the target organic anion transporting polypeptide 1B1 (UniProt Q9Y6L6). Nature of the experiment: cell-based or functional assay.
On to “1-dihydro-3-[D-Ala]-4[(2S,3S)-2-Amino-4-[4-(2-methoxy-ethyl)-piperazin-1-yl]-3-methyl-butanoyl]-cyclosporin (peptide)”, for which the OATP1B13 IC50 is 3300 nM. To “3-[(R)-2-(methylamino)butanoic acid]-4-[(2S,3S)-4-methoxy-3-methyl-2-(methylamino)butanoyl]-cyclosporin (peptide)” belongs 2100 nM; to “3-[(R)-3-methyl-2-(methylamino)butanoyl]-4-[(2S,3S)-4-methoxy-3-methyl-2-(methylamino)butanoyl]-cyclosporin (peptide)”, 2000 nM; to “3-[(R)-5-hydroxy-2-(methylamino)pentanoyl]-4-[(2S,3S)-3-methyl-2-(methylamino)-4-(methylsulfonyl)butanoyl]-cyclosporin (peptide)”, 2700 nM. To “3-[D-Ala]-4-[(2S,3R)-3,6-dimethyl-2-(methylamino)-6-((4-methylpiperazine-1-carbonyl)oxy)heptanoyl]-cyclosporin (peptide)” belongs 4700 nM; to “3-[D-Ala]-4-[(2S,3R)-3-methoxy-2-(methylamino)-4-morpholinobutanoyl]-cyclosporin (peptide)”, 900 nM. “3-[D-Ala]-4-[(2S,3R)-3-methyl-2-(methylamino)-4-(1,4-dioxa-8-azaspiro[4.5]decan-8-yl)butanoyl]-cyclosporin (peptide)”: the OATP1B13 IC50 is 2100 nM.

“3-[D-Ala]-4-[(2S,3R)-3-methyl-2-(methylamino)-4-(1,4-oxazepan-4-yl)butanoyl]-cyclosporin (peptide)” came in with an OATP1B13 IC50 of 1700 nM.

Turning to “3-[D-Ala]-4-[(2S,3R)-3-methyl-2-(methylamino)-4-(2-oxa-6-azaspiro[3.3]heptan-6-yl)butanoyl]-cyclosporin (peptide)”, the OATP1B13 IC50 came out at 3400 nM. Turning to “3-[D-Ala]-4-[(2S,3R)-3-methyl-2-(methylamino)-4-(2-oxa-6-azaspiro[3.4]octan-6-yl)butanoyl]-cyclosporin (peptide)”, the OATP1B13 IC50 stood at 2000 nM. “3-[D-Ala]-4-[(2S,3R)-3-methyl-2-(methylamino)-4-(3-(trifluoromethyl)-5,6-dihydro-[1,2,4]triazolo[4,3-a]pyrazin-7(8H)-yl)butanoyl]-cyclosporin (peptide)” came in with an OATP1B13 IC50 of 1000 nM. “3-[D-Ala]-4-[(2S,3R)-3-methyl-2-(methylamino)-4-(3-oxopiperazin-1-yl)butanoyl]-cyclosporin (peptide)” registered an OATP1B13 IC50 of 2100 nM. In the case of “3-[D-Ala]-4-[(2S,3R)-3-methyl-2-(methylamino)-4-(4-(methylsulfonyl)piperidin-1-yl)butanoyl]-cyclosporin (peptide)”, the OATP1B13 IC50 was found to be 1800 nM.

As for “3-[D-Ala]-4-[(2S,3R)-3-methyl-2-(methylamino)-4-(4-methylpiperazin-1-yl)butanoyl]-cyclosporin (peptide)”, the OATP1B13 IC50 stood at 7900 nM. In turn, “3-[D-Ala]-4-[(2S,3R)-3-methyl-2-(methylamino)-5-((S)-2-methylpiperidin-1-yl)pentanoyl]-cyclosporin (peptide)” showed an OATP1B13 IC50 of 1700 nM. To “3-[D-Ala]-4-[(2S,3R)-3-methyl-2-(methylamino)-5-((S)-3-oxotetrahydro-1H-oxazolo[3,4-a]pyrazin-7(3H)-yl)pentanoyl]-cyclosporin (peptide)” belongs 2800 nM; to “3-[D-Ala]-4-[(2S,3R)-3-methyl-2-(methylamino)-5-(piperidin-1-yl)pentanoyl]-cyclosporin (peptide)”, 2300 nM; to “3-[D-Ala]-4-[(2S,3R)-3-methyl-2-(methylamino)-5-morpholinopentanoyl]-cyclosporin (peptide)”, 3900 nM. “3-[D-Ala]-4-[(2S,3R)-3-methyl-2-(methylamino)-6-(4-methylpiperazin-1-yl)-6-oxohexanoyl]-cyclosporin (peptide)” gave an OATP1B13 IC50 of 5400 nM. Substance “3-[D-Ala]-4-[(2S,3R)-3-methyl-2-(methylamino)-6-((4-methylpiperazine-1-carbonyl)oxy)hexanoyl]-cyclosporin (peptide)” gave an OATP1B13 IC50 of 2900 nM. “3-[D-Ala]-4-[(2S,3R)-3-methyl-2-(methylamino)-6-(((1-methylpiperidin-4-yl)carbamoyl)oxy)hexanoyl]-cyclosporin (peptide)” showed an OATP1B13 IC50 of 7800 nM. In the case of “3-[D-Ala]-4-[(2S,3R)-3-methyl-2-(methylamino)-6-morpholino-6-oxohexanoyl]-cyclosporin (peptide)”, the OATP1B13 IC50 stood at 4800 nM. Consider “3-[D-Ala]-4-[(2S,3R)-3-methyl-4-(methyl(pyridin-3-ylmethyl)amino)-2-(methylamino)butanoyl]-cyclosporin (peptide)”, for which the OATP1B13 IC50 was 1000 nM. The same measure for “3-[D-Ala]-4-[(2S,3R)-3-methyl-6-((methyl(1-methylpiperidin-4-yl)carbamoyl)oxy)-2-(methylamino)hexanoyl]-cyclosporin (peptide)”: 3700 nM. The same measure for “3-[D-Ala]-4-[(2S,3R)-4-(3,3-difluoropyrrolidin-1-yl)-3-methyl-2-(methylamino)butanoyl]-cyclosporin (peptide)”: 1400 nM; for “3-[D-Ala]-4-[(2S,3R)-4-(3-methoxyazetidin-1-yl)-3-methyl-2-(methylamino)butanoyl]-cyclosporin (peptide)”: 4200 nM. The same measure for “3-[D-Ala]-4-[(2S,3R)-4-(4-(ethoxycarbonyl)piperazin-1-yl)-3-methyl-2-(methylamino)butanoyl]-cyclosporin (peptide)”: 2100 nM. As for “3-[D-Ala]-4-[(2S,3R)-4-(4-acetylpiperazin-1-yl)-3-methyl-2-(methylamino)butanoyl]-cyclosporin (peptide)”, the OATP1B13 IC50 is 2300 nM. To “3-[D-Ala]-4-[(2S,3R)-4-(4-cyanopiperidin-1-yl)-3-methyl-2-(methylamino)butanoyl]-cyclosporin (peptide)” belongs 1900 nM; to “3-[D-Ala]-4-[(2S,3R)-4-(8-oxa-3-azabicyclo[3.2.1]octan-3-yl)-3-methyl-2-(methylamino)butanoyl]-cyclosporin (peptide)”, 1700 nM. The same measure for “3-[D-Ala]-4-[(2S,3R)-4-((2-(dimethylamino)-2-oxoethyl)(methyl)amino)-3-methyl-2-(methylamino)butanoyl]-cyclosporin (peptide)”: 2700 nM; for “3-[D-Ala]-4-[(2S,3R)-4-((2-methoxyethyl)(methyl)amino)-3-methyl-2-(methylamino)butanoyl]-cyclosporin (peptide)”: 1900 nM; for “3-[D-Ala]-4-[(2S,3R)-4-((2S,5S)-2,5-dimethylmorpholino)-3-methyl-2-(methylamino)butanoyl]-cyclosporin (peptide)”: 2600 nM. On to “3-[D-Ala]-4-[(2S,3R)-4-((4-ethylpiperazine-1-carbonyl)oxy)-3-methyl-2-(methylamino)butanoyl]-cyclosporin (peptide)”, for which the OATP1B13 IC50 came to 2200 nM. As to “3-[D-Ala]-4-[(2S,3R)-4-cyano-3-methyl-2-(methylamino)butanoyl]-cyclosporin (peptide)”, the OATP1B13 IC50 came out at 900 nM.

In turn, “3-[D-Ala]-4-[(2S,3R)-5-(3-methoxyazetidin-1-yl)-3-methyl-2-(methylamino)pentanoyl]-cyclosporin (peptide)” came in with an OATP1B13 IC50 of 1400 nM.

As for “3-[D-Ala]-4-[(2S,3R)-5-(4-(2-methoxyethyl)piperazin-1-yl)-3-methyl-2-(methylamino)pentanoyl]-cyclosporin (peptide)”, the OATP1B13 IC50 amounted to 9100 nM. Take “3-[D-Ala]-4-[(2S,3R)-5-(4-cyanopiperidin-1-yl)-3-methyl-2-(methylamino)pentanoyl]-cyclosporin (peptide)”: the OATP1B13 IC50 turned out to be 2400 nM. Consider “3-[D-Ala]-4-[(2S,3R)-5-(4-cyclobutylpiperazin-1-yl)-3-methyl-2-(methylamino)pentanoyl]-cyclosporin (peptide)”, for which the OATP1B13 IC50 amounted to 2100 nM. “3-[D-Ala]-4-[(2S,3R)-6-(4-(2-methoxyethyl)piperazin-1-yl)-3-methyl-2-(methylamino)hexanoyl]-cyclosporin (peptide)” had an OATP1B13 IC50 of 2200 nM.

For “3-[D-Ala]-4-[(2S,3R)-6-(4-ethylpiperazin-1-yl)-3-methyl-2-(methylamino)hexanoyl]-cyclosporin (peptide)”, the OATP1B13 IC50 came out at 2600 nM.

“3-[D-Ala]-4-[(2S,3R)-6-(4-methoxypiperidin-1-yl)-3-methyl-2-(methylamino)hexanoyl]-cyclosporin (peptide)”: the OATP1B13 IC50 came out at 4300 nM.

For the substance “3-[D-Ala]-4-[(2S,3R)-6-(8-oxa-3-azabicyclo[3.2.1]octan-3-yl)-3-methyl-2-(methylamino)-6-oxohexanoyl]-cyclosporin (peptide)”, the OATP1B13 IC50 amounted to 1900 nM. In the case of “3-[D-Ala]-4-[(2S,3R)-6-hydroxy-3,6-dimethyl-2-(methylamino)heptanoyl]-cyclosporin (peptide)”, the OATP1B13 IC50 is 2200 nM. With “3-[D-Ala]-4-[(2S,3S)-3-methyl-2-(methylamino)-4-(2-(4-methylpiperazin-1-yl)-2-oxoethoxy)butanoyl]-cyclosporin (peptide)”, the OATP1B13 IC50 stood at 9400 nM. The substance “3-[D-Ala]-4-[(2S,3S)-3-methyl-2-(methylamino)-4-(2-((S)-3-methylmorpholino)ethoxy)butanoyl]-cyclosporin (peptide)” yielded an OATP1B13 IC50 of 4800 nM. The substance “3-[D-Ala]-4-[(2S,3S)-3-methyl-2-(methylamino)-4-(2-oxo-2-(piperazin-1-yl)ethoxy)butanoyl]-cyclosporin (peptide)” showed an OATP1B13 IC50 of 6900 nM. Consider “3-[D-Ala]-4-[(2S,3S)-3-methyl-2-(methylamino)-4-(((S)-tetrahydrofuran-3-yl)oxy)butanoyl]-cyclobsporin (peptide)”, for which the OATP1B13 IC50 turned out to be 1900 nM. With “3-[D-Ala]-4-[(2S,3S)-3-methyl-2-(methylamino)-4-((S)-3-oxotetrahydro-1H-oxazolo[3,4-a]pyrazin-7(3H)-yl)butanoyl]-cyclosporin (peptide)”, the OATP1B13 IC50 was found to be 1400 nM.
